Test results taken from patent US20220325265A1, “GLUCOCEREBROSIDASE MUTANTS” (Hoffmann-la Roche Inc., priority 2019, published 2022).
Substitutions are numbered along the chain they refer to. Numbers in names are those of the source. Where “and” joins values, the source holds several entries; their conditions need not be identical. Equal entries are not always repeated.

B1: R495HS2: hGCase based on the Cerezyme sequence (R495H) but produced in S2 cells, His8-tagged; Seq. Id. No. 1 (protein, listed as Homo sapiens)
chain: ARPCIPKSFGYSSVVCVCNATYCDSFDPPTFPALGTFSRYESTRSGRRMELSMGPIQANHTGTGLLLTLQPEQKFQKVKGFGGAMTDAAALNILALSPPAQNLLLKSYFSEEGIGYNIIRVPMASCDFSIRTYTYADTPDDFQLHNFSLPEEDTKLKIPLIHRALQLAQRPVSLLASPWTSPTWLKTNGAVNGKGSLKGQPGDIYHQTWARYFVKFLDAYAEHKLQFWAVTAENEPSAGLLSGYPFQCLGFTPEHQRDFIARDLGPTLANSTHHNVRLLMLDDQRLLLPHWAKVVLTDPEAAKYVHGIAVHWYLDFLAPAKATLGETHRLFPNTMLFASEACVGSKFWEQSVRLGSWDRGMQYSHSIITNLLYHVVGWTDWNLALNPEGGPNWVRNFVDSPIIVDITKDTFYKQPMFYHLGHFSKFIPEGSQRVGLVASQKNDLDAVALMHPDGSAVVVVLNRSSKDVPLTIKDPAVGFLETISPGYSIHTYLWHRQ
modifications: His8 tag
B2: imiglucerase (protein, UniProt P04062 40-536, looked up, variant R495H)
Lysosomal acid …: B1 chain
modifications: imiglucerase; CHO-produced
notes: Commercially available Cerezyme (imiglucerase, Genzyme), hGCase R495H produced in CHO cells
B3: M53T/P55T: recombinant human β-glucocerebrosidase variant R495H/M53T/P55T, S2 cells; Seq. Id. No. 7 (protein, listed as Homo sapiens)
chain: B1 chain with M53T, P55T
notes: recombinant human β-glucocerebrosidase variant R495H/M53T/P55T, S2 cells; Id; No. 7
B4: L34Q: recombinant human β-glucocerebrosidase variant R495H/L34Q, S2 cells; Seq. Id. No. 6 (protein, listed as Homo sapiens)
chain: B1 chain with L34Q
notes: recombinant human β-glucocerebrosidase variant R495H/L34Q, S2 cells; Id; No. 6
B5: I5N: recombinant human β-glucocerebrosidase variant R495H/I5N, S2 cells; Seq. Id. No. 4 (protein, listed as Homo sapiens)
chain: B1 chain with I5N
notes: recombinant human β-glucocerebrosidase variant R495H/I5N, S2 cells; Id; No. 4
B6: F31Y: recombinant human β-glucocerebrosidase variant R495H/F31Y, S2 cells; Seq. Id. No. 5 (protein, listed as Homo sapiens)
chain: B1 chain with F31Y
notes: recombinant human β-glucocerebrosidase variant R495H/F31Y, S2 cells; Id; No. 5
B7: K321N/H145L: Amicus double mutant hGCase R495H/K321N/H145L produced in S2 cells; Seq. Id. No. 3 (protein, listed as Homo sapiens)
chain: B1 chain with H145L, K321N
notes: Amicus double mutant hGCase R495H/K321N/H145L produced in S2 cells; Id; No. 3
B8: K321N: Amicus single mutant hGCase R495H/K321N produced in S2 cells; Seq. Id. No. 2 (protein, listed as Homo sapiens)
chain: B1 chain with K321N
notes: Amicus single mutant hGCase R495H/K321N produced in S2 cells; Id; No. 2

What was measured:
[1] = Thermal shift assay via nanoDSF measurement (unfolding temperature); assay type: physicochemical; conditions: Prometheus NT.Plex, 3° C./min, 0.06-0.5 mg/ml
Method: The thermal shift assay was performed via nanoDSF (differential scanning fluorimetry) measurements using Prometheus NT.Plex nanoDSF (NanoTemper Technologies). The measurement was initialized using the software PR.ThermoControl. Prometheus can precisely characterize samples by measuring the thermal unfolding, chemical denaturation and aggregation within one single run (NanoTemper Technologies, 2019). By gradually heating the sample until reaching 95° C., the protein unfolds. Thereby, the chemical environment of tryptophan residues changes (change in intrinsic tryptophan fluorescence of protein due to more aqueous environment), causing a red-shift in fluorescence (tryptophan fluorescence emission shift). By plotting the fluorescence ratio 350/330 nm against the temperature, the melting temperature Tm can be determined. Calculating the first derivative of raw data gives a peak curve with its maximum indicating the unfolding temperature Tm.
For the sample preparation, a concentration of 0.5 mg/ml was adjusted for the hGCase mutants. For variant I5N and R495HS2, protein concentrations of 0.075 mg/ml (I5N) and 0.06 mg/ml (R495HS2) were applied due to low protein yields. 15 μl total sample volume was uptaken in each capillary of the capillary rack (Prometheus NT.Plex Capillary Chips, NanoTemper) and placed in the device. The excitation power was adjusted to 20-80%, depending on the applied protein concentration. The gradually heating was set to 3° C./min until reaching 95° C. (20° C. was set as starting temperature). The evaluation and calculation of the first derivative was done using the NanoTemper PR.ThermoControl software, the final evaluation and graphing was done using the PR.StabilityAnalysis software.
On the one hand, a successively increasing temperature gradient was applied to measure melting temperatures of protein molecules via nanoDSF (differential scanning fluorimetry) measurement using Prometheus NT.Plex (NanoTemper Technologies, 2019). The sample is gradually heated by increasing the temperature until reaching 95° C. Thereby, the protein unfolds and tryptophan residues experience a change in chemical environment (exposure to a more aqueous environment), which changes the intrinsic tryptophan fluorescence of the protein, causing a red shift in the fluorescent spectrum (350/330 nm=tryptophan fluorescence emission shift) (Schubert, 2015). In FIG. 1, typical melting curves of such an unfolding experiment are shown.
In the upper section of the graphs (FIGS. 1 (A) and (B)), the raw data (progression curves) measured with nanoDSF is plotted, indicating the shift in the fluorescence ratio 350/330 nm during the course of the measurement with increasing temperature. The calculation of the first derivative, giving peak curves (lower section of graphs in (A) and (B)), was done according to default settings of the Software PR.StabilityAnalysis (table 2). Peak maxima (thermal unfolding transition midpoint) indicate the unfolding temperature Tm, where half of the proteins are unfold (Schubert, 2015).

[2] = Heat inactivation at 55° C., residual GCase activity of purified protein; assay type: physicochemical; conditions: for residual activities after 5 and 10 min of incubation (in words): 55° C., compared to R495HS2; for residual GCase activity after heat inactivation: 55° C. waterbath, 50 nM protein, initial activity = 100%
Method: For all further GCase characterization experiments including the activity assay, 20 μM substrate concentration, 30-40 min incubation time and protein concentrations ranging from 25-100 nM were set as final assay settings to ensure measurements in the linear range. The overall DMSO concentration within the assay was kept at 0.5% (v/v) or even below, since DMSO influences the fluorescent signal with higher concentrations (experimentally tested, data not shown; confirmed by (Urban et al., 2008). Therefore, GCase activity buffer+1% (v/v) DMSO was also used for dilutions (table 2.9). The plate reader SpectraMax i3 (Molecular Devices) including the analysis software SoftMax Pro 6.4 was used for all activity measurements within this work. The program settings were kept the same for all activity runs: kinetic run, measurement temperature: 37° C., PMT Gain: high; flashes per read: 6; read height: 0.73305 mm from plate.
Another approach to test the mutants for thermal stability is the irreversible heat inactivation at 55° C. (Futami et al., 2017; Zale & Klibanov, 1986). As initial screening to select for most promising candidates, this thermal stability approach was chosen (section 3.1.1). For this, supernatant samples of each construct were taken from the 30 ml S2 cell cultures, respectively (section 2.2). The protein concentration was not adjusted. The samples were incubated for 40 min in total at 55° C. (PCR Cycler Mastercycler gradient, Eppendorf) using PCR plates (FrameStar®96 well skirted PCR plate, 4titude Ltd.). Samples were taken after 5, 7, 10, 15, 20, 30 and 40 min for residual activity measurements. The activity assay was performed as described in section 2.3.5. The initial activity of each mutant was set to 100% before heating. Residual activities were calculated in regard to the initial activity. Data points were fitted using the one phase decay fit by GraphPad Prism7 following equation 3: […]
For the heat inactivation experiment of purified protein (see section 3.3.3), hGCase protein samples were prepared with a final concentration of 50 nM, diluted in hGCase activity buffer, pH 6.0 (table 2.9) and incubated for 5 and 10 minutes in the waterbath (Julabo 5A, Julabo) at 55° C.
The second approach was aimed to test residual GCase activity after thermal inactivation at a fixed temperature. With this additional approach, the focus was set on activity-based changes with increased incubation time (Futami et al., 2017; Zale & Klibanov, 1986). Here, samples were incubated for 5 and 10 minutes in the waterbath at 55° C. Residual GCase activities were measured with the initial activity set to 100% (before heating). FIG. 2 depicts calculated residual activities for tested mutants after incubation.

Molecule | unfolding temperature Tm [1] | residual activities after 5 and 10 min of incubation (in words) [2] | residual GCase activity after heat inactivation ([2]; 5 min incubation) [%] | residual GCase activity after heat inactivation ([2]; 10 min incubation) [%]
B1 | 54.6 °C and 54.6 ± 0.0 °C |  |  | 
B2 | 55.2 ± 0.0 °C | rapidly lose its initial activity but retained residual activity with further incubation |  | 
B3 | 55.3 ± 0.1 °C |  | 65 | 27
B4 | 55.2 ± 0.0 °C |  |  | ~27
B5 | 54.8 ± 0.4 °C |  | 31 | 16
B6 | 55.1 ± 0.1 °C |  |  | ~27
B7 | 57.3 ± 0.0 °C | significantly higher residual activities |  | 
B8 | 56.2 ± 0.1 °C | significantly higher residual activities |  | 
